Laboratory results from patent publication US20230257475A1.
Like-named read-outs stand apart in the source and are kept apart here. Each block holds one molecule with its values, some of them ahead of it.

Columns and labels:
[1] = target: human CD20 (human) (UniProt P11836); assay: flow cytometry on Raji cells (CD20 on the cell surface), serial dilution of the mAb, detection with PE-conjugated mouse anti-human IgG1Fc, MFI
[2] = target: human CD20 (human) (UniProt P11836); assay: as above; remark: listed apart in the source
[3] = target: human CD22 (human) (UniProt P20273); assay: flow cytometry on K562.huCD22.Luc cells against parental K562 cells
[4] = target: human CD19, CD20 and CD22 on CD19+CD20+CD22+ tri-positive B lymphoma cells (Raji, Daudi) (human), P15391; assay: cell-based or functional assay

UniProt P11836, sequence (P11836 whole entry): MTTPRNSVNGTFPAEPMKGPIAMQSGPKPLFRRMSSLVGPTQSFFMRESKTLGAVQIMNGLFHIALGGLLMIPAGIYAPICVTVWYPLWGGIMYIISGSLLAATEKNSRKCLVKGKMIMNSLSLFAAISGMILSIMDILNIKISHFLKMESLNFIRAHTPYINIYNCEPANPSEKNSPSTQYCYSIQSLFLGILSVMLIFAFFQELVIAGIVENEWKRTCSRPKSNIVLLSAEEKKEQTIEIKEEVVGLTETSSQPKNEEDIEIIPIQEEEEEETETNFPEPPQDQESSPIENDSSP

- EC50 [1]: 13.2 nM
- EC50 [2]: 8.5 nM
Molecule: Leu16 Fab-huIgG1Fc mAb (antibody)

- EC50 [2]: 8.1 nM
Molecule: Rituximab Fab-huIgG1Fc mAb (antibody)

Further lines, the molecule ahead of its results:

Molecule: PE conjugated anti-human CD22 antibody (Miltenyi Biotec. Cat. No. 130-105-086)
- MFI fold over K562 cells (negative control) [3]: 642 fold

B1: AIO-8C1 CAR (protein)
chain: QVQLVESGGGSVQAGGSLRLSCGASGNINSRNCMGWFRQAPGKEREGVAAIGQVTGRSYYVDSVKGRFTISLDNAKNTLYLQMNTLKPEDTAMYYCAAAPGCLLSALRSADYRNWGQGTQVTVSSGGGGSEVQLVESGPGLVKPSQTLSLTCTVSGASITTGEFYWNWFRQPPGKGLEWMGAIAASGSTTYSPSFESRTSISRDTSENQFYLQLSSVTPEDTAVYYCGRSFGVAAVTTGQNRGQGTQVTVSSGGGGSQIQLVESGGGLVQPGGSLRLSCAASGFTFSNYPMTWLRQAPGKGLESVSDITSGGDRPYYADSVKGRFTISRDNAKNMLYLEMNSLKTEDTAVYYCATWDRTLTGQGTQVTVSSTSTTTPAPRPPTPAPTIASQPLSLRPEACRPAAGGAVHTRGLDFACDIYIWAPLAGTCGVLLLSLVITLYCKRGRKKLLYIFKQPFMRPVQTTQEEDGCSCRFPEEEEGGCELRVKFSRSADAPAYQQGQNQLYNELNLGRREEYDVLDKRRGRDPEMGGKPRRKNPQEGLYNELQKDKMAEAYSEIGMKGERRRGKGHDGLYQGLSTATKDTYDALHMQALPPR
- IFN-γ release in co-culture with Raji cells, 24 hours, against AIO-7C1 CAR-T cells [4]: 2 fold
